From the supplement of paper PMC6755084

B1: F1*; the commonest letter at each place (parent)
chain: GAGACCGCAACTGAAAAGTTGTTATCACTTGTCGTAAGACACTTTGGATGGGTTGAAGTTCTGCACGTAGAAGCAAAAGGC

Variants of: B1
Assay: fraction ligated after 30 min (ligated reads / total reads); higher = more ligase activity
Conditions: with F1*sub RNA substrate (template-directed ligation), 42 °C
Summary of the method: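 Oligo-pool templates underwent PCR amplification, T7 transcription and gel purification to yield ribozyme variants. Gel-separated ligated and unligated bands were converted to complementary DNA with barcoded primers and sequenced on a MiSeq, keeping core bases of quality ≥20. The ratio of ligated reads to total reads gave the fraction ligated for every variant.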

Variant | fraction ligated
A27T C28T | 0.798
A41T A57T | 0.808
T29C T45C | 0.471
C26G A41G | 0.716
G31A C33G | 0.824
G31C T44G | 0.781
T44G | 0.844
A36T | 0.843
A48C A56T | 0.289
A48C A56G | 0.283
C33T G50T | 0.804
A37C G50C | 0.439
C26T A27C | 0.811
T23A A39C | 0.789
C26T G38T | 0.478
C28T C42T | 0.819
A24T G46T | 0.2
T30G A41T | 0.82
T30A A57T | 0.8
A27T A48G | 0.794
T29A C42G | 0.867
T25C T43G | 0.8
C28A G46C | 0.79
C28G A37C | 0.766

Variant | fraction ligated
A24T T49A | 0.8
G46A A56T | 0.645
A41T A48G | 0.762
T29A T45A | 0.774
T30G A56C | 0.786
T23C T43G | 0.745
C26G G50A | 0.0221
A27C T43C | 0.78
G38C G46T | 0.697
T43G T49G | 0.743
C42G A57T | 0.834
C42G A57G | 0.807
A39C G50T | 0.503
G55T A56G A57T | 0.0243
G55T A56G A57G | 0.0371
C33A A41G | 0.823
C26G A39T | 0.493
G34C A56T | 0.812
T23G T43G | 0.821
G38C G50C | 0.0192
A24G T32G | 0.589
A27G T45C | 0.357
A36C A57C | 0.813
C40T G50C | 0.357

Variant | fraction ligated
T23C A37G | 0.837
T23G G47C | 0.0263
C28A C42G | 0.81
A36G A39T | 0.815
A27T T29C | 0.807
A37C C42G | 0.833
G34A G55A | 0.84
C33A T44G | 0.821
G34T T35G | 0.847
G55T A56T A57G | 0.0103
A41G G55C | 0.663
A39T T44A | 0.79
A24G G46C | 0.765
T30C T32C A39G A41G | 0.816
A24T T45C | 0.0212
C26G G46A | 0.785
G31A C42A | 0.834
T29G A57C | 0.765
T29G A57G | 0.776
A41T G50C | 0.268
T32G A37G | 0.842
C33T A39G | 0.833
A39G C40T | 0.844
T44G A57C | 0.816

Variant | fraction ligated
G46A | 0.812
A39G T43C | 0.814
C40G A57G | 0.8
T29C T43G | 0.815
G31A G50T | 0.195
T44C A57C | 0.744
C33T A48C | 0.789
T23G G34C | 0.799
A39T C40A | 0.818
A48G G50A | 0.118
G34A A39G | 0.835
A36G T43A | 0.823
G31A G47C | 0.0647
C26T A37G | 0.841
G47A A48C | 0.723
T25G G31T | 0.0799
C40G C42T | 0.8
T32C T35C | 0.829
T44G G55A | 0.842
T32C A57C | 0.76
C40A | 0.833
T25G T45G | 0.0229
C28G T35C | 0.802
C28G T35G | 0.759

Variant | fraction ligated
A39C G47T | 0.3
T32A C42T | 0.845
T32A C42G | 0.861
T25G A41C | 0.0915
T30A G55T | 0.818
T35C A48C | 0.766
A27G A57C | 0.777
T35G G38T | 0.845
T32G G55C | 0.63
C40T A48G | 0.784
A56G A57C | 0.748
G31A T45G | 0.137
T23A A36T | 0.838
G34T A39T | 0.804
A27G A37G | 0.848
C33T T35C | 0.869
A24C G31C | 0.038
G38T T45C | 0.627
A24C A56C | 0.0226
A39C G46T | 0.776
A48T G50C | 0.0873
A48T G50A | 0.158
A41T C42A | 0.849
G55A A57T | 0.801

Variant | fraction ligated
C26A A37T | 0.797
T32G C33T | 0.856
A39T T43A | 0.829
T45G | 0.385
G38A C42T | 0.87
T25C A41G | 0.757
T35G T45G | 0.388
A24C G46C | 0.043
T25A A27T | 0.371
A41G T49C | 0.564
C26A G34A | 0.786
T23G T35G | 0.86
C33G A41T | 0.789
T43C G47C | 0.276
T29A G47T | 0.473
T29A G47C | 0.249
C33T C40G | 0.877
T30A A37C | 0.831
C26T C33G | 0.819
G46C A56T | 0.447
C26A A27T | 0.747
A37T A57T | 0.838
T35C T43A | 0.839
G55T A56G | 0.806

Variant | fraction ligated
T32C G47C | 0.0784
T25G T29G | 0.714
T35C A36C | 0.8
T35C A36T | 0.839
T45C A57C | 0.785
T32G T44G | 0.821
A24C C33A | 0.147
C26A G55C | 0.0379
A27G A56C | 0.767
G34A A36T | 0.843
T23C G46T | 0.614
T35A A48T | 0.8
A36C C42T | 0.889
A36C C42A | 0.852
T25A A48C | 0.752
A24G A41G | 0.691
C33T T49A | 0.787
G47C A56T | 0.0769
A37G G38T | 0.849
C33G C42A | 0.826
T45G G55A | 0.045
A24T A41G | 0.72
A24T A41T | 0.785
C26G A57C | 0.33

Variant | fraction ligated
C26G A57G | 0.576
T32C A39G | 0.852
T30G T43C | 0.794
A27G G47A | 0.805
A37G A57G | 0.859
A39G A56T | 0.781
A39G A56C | 0.787
C26T A39T | 0.823
T29C T32G | 0.794
G50A A57T | 0.216
G50A A57C | 0.0747
T23C C40G | 0.766
T43A A48C | 0.734
C26T C28A | 0.795
T23G G50C | 0.401
T30G A48G | 0.791
G46T G50T | 0.148
T32A A41C | 0.8
C26T A56C | 0.29
T30G T32G | 0.865
T23C G34A | 0.819
G34C T49G | 0.75
C26G A36G | 0.767
A27G T35C | 0.812

Variant | fraction ligated
T54C | 0.846
T35G A36C | 0.824
A37C G46A | 0.78
T44A G55C | 0.795
T25G G46A | 0.266
G55T A57T | 0.794
T35G A48T | 0.789
T32A G50A | 0.232
T30G A36G | 0.872
C40A A57G | 0.843
T29A G46C | 0.779
A39T A41C | 0.782
A39T A41T | 0.775
A39G G46A | 0.843
C26A T35G | 0.794
A24G | 0.777
A37T A56C | 0.786
A27C A37C | 0.793
A24T G38A | 0.205
T23A C42G | 0.822
T43A T44G | 0.804
T35A T43A | 0.84
A24G G34C | 0.73
C42T T43A | 0.866

Variant | fraction ligated
A36G A56G | 0.814
G46T A56T | 0.237
A39T C42G | 0.817
C28T T49C | 0.749
T35G A37T | 0.846
T49A | 0.777
A36C G47A | 0.81
T23A G47C | 0.0295
T44A T45C | 0.8
T23C A41C | 0.783
T25C G34T | 0.786
C28A A48T | 0.424
T23G C40G | 0.812
T23A C33A | 0.855
C42G G55C | 0.758
C28A T30C | 0.804
T32A A39G | 0.832
T29C G38C | 0.828
A37T C40T | 0.842
T44C A56T | 0.78
C42A T49A | 0.797
A48C A57C | 0.714
A48C A57G | 0.762
T30G C33G | 0.854

Variant | fraction ligated
T23G A24C A27G C28A C42G G47A | 0.812
T32G G34T | 0.793
T29G A56G | 0.749
G31T T44C | 0.782
C28G G38T | 0.772
C28G G38C | 0.778
A39C T44A | 0.799
G34C A48G | 0.753
A27T T49C | 0.512
T25G | 0.784
A37C A57C | 0.819
T32A T35G | 0.812
A36T G47C | 0.233
A37C G55A | 0.837
G46C G47T | 0.0897
G34C A57T | 0.769
C33G A36C | 0.796
A39G C42A | 0.829
G31A G46T | 0.777
T25G A56C | 0.0423
T25G G47A | 0.363
T23C T49G | 0.78
T32G G46T | 0.647
G31T | 0.793

Variant | fraction ligated
C28T G50A | 0.352
T35C G47A | 0.811
G31T G46T | 0.769
G31T G46C | 0.681
C28G T29A | 0.803
T29C G34A | 0.827
T29C G34C | 0.793
G31C T49C | 0.0658
G46A G50A | 0.0565
T29G T32A | 0.821
T30C G31T | 0.823
T32G T43A | 0.812
C42T T49A | 0.791
T32G G38T | 0.799
G31A T32A | 0.809
G38T G55T | 0.798
A48C G50T | 0.309
A48C G50A | 0.148
C28T T44A | 0.816
T29A C33T | 0.859
A41C T49C | 0.17
A41C G46T | 0.676
T30C A39C | 0.765
C28G C33T | 0.786

Variant | fraction ligated
A27T T44G | 0.846
C26A G47A | 0.762
A24C G38A | 0.508
A36C A39C | 0.803
G55C A56T A57G | 0.0294
C28G G47T | 0.591
C26T T45G | 0.28
C28A G50C | 0.163
G38C T43A | 0.825
A37C C40T | 0.858
C26A G50C | 0.0201
A39C T49G | 0.737
T23C T32C | 0.788
G31A C40G | 0.85
T29A A41G | 0.816
A36C T43C | 0.806
C28G C40T | 0.806
T23C A24T | 0.501
T25A C28G | 0.431
G34T G50A | 0.606
T25G C28A | 0.348
T23G T29G | 0.797
G47C G50T | 0.202
G47C G50A | 0.059

Variant | fraction ligated
T32A A56C | 0.574
T25C T44C | 0.765
C40T T43C | 0.795
A36G C42G | 0.844
A24G T49G | 0.731
C28T A48T | 0.709
T30A G31C | 0.784
G38A A57G | 0.855
G55A A56G A57T | 0.152
A27G G34A | 0.831
A27C A56G | 0.742
T25G A27T | 0.706
A24T A36G | 0.519
G47A G55A | 0.775
A41C G55C | 0.329
A24G G38C | 0.695
A37C A39T | 0.807
A48T A57C | 0.68
T25A T35C | 0.761
T32A T45C | 0.358
T32A T45G | 0.0954
G34C T43C | 0.78
